Results published in paper PMC11869522, “Competitive displacement of lipoprotein lipase from heparan sulfate is orchestrated by a disordered acidic cluster in GPIHBP1” (Journal of Lipid Research, 2025).

B1: GPIHBP1^Cluster2-neutral: GPIHBP1 mutant with all Glu/Asp replaced by Gln/Asn at residues 19–30 (protein)
chain: QTQQEEEEEDEDHGPDDYNQQNQNQVQQQQTNRLPGGGSRVLLRCYTCKSLPRDERCNLTQNCSHGQTCTTLIAHGNTESGLLTTHSTWCTDSCQPITKTVEGTQVTMTCCQSSLCNVPPWQSSRVQDPTG
modifications: Tyr18 sulfation absent; one bi-antennary N-linked glycosylation; left off: uPAR domain III, N-terminal, cleaved
B2: GPIHBP1^Cluster1-neutral: GPIHBP1 mutant with all Glu/Asp replaced by Gln/Asn at residues 1–17 (protein)
chain: QTQQQQQQQNQNHGPNNYDEEDEDEVEEEETNRLPGGGSRVLLRCYTCKSLPRDERCNLTQNCSHGQTCTTLIAHGNTESGLLTTHSTWCTDSCQPITKTVEGTQVTMTCCQSSLCNVPPWQSSRVQDPTG
modifications: Tyr18 sulfation present in less than 40%; one bi-antennary N-linked glycosylation; left off: uPAR domain III, N-terminal, cleaved

Legend:
[1] = test system: bovine LPL; assay: Native PAGE binding to bovine LPL; settings: 4 µM LPL with 18 µM GPIHBP1, 30 min on ice; Coomassie staining
Method: (§1) Distinct impacts of disordered acidic clusters in GPIHBP1
(§2) To confirm interactions between puri fi ed human GPIHBP11–131, G P IH B P 1 Cluster1-neutral, or GPIHBP1 Cluster2-neutral with human, mouse, and bovine LPL, these protein pairs were incubated for 30 min on ice (4 µM LPL with 18 µM GPIHBP1) before they were analyzed by native PAGE. As th ese concentrations were well above t he K D of 0.2 nM for the wildtype LPL•GPIHBP1 interaction, LPL is saturated with GPIHBP1 in these experiments (1). […]
(§3) spect r a for the purified GPIHBP1 variants wer e r ecor ded at 25°C in Helman cuvettes (path- length of 1 mm) with a scan rate of 50 nm/ min c ove r i ng the range of 190- 250 nm, averaging three scans for each protein. Spectra for the pr ote i ns were compared after converting to molar ellipticity using the following equation, […] where, Mw is the molecular weight of the protein, c is the protein concentration in g/l, l is the pat h-length of the cuvette, Nr number of amino acid residues in the protein.
(§4) Figure S1 : Binding of GPIHBP1 charge mutants to LPL as assessed by Native PAGE. The electrophoretic mobility of GPIHBP1 variants alone or in presence of purified human LPL ( A), b ovine LPL (B), and murine LPL (C) was assessed by native PAGE followed by Coomassie blue staining. […]

[2] = test system: bLPL; assay: PCSK3 cleavage of LPL (SDS-PAGE densitometry); type: biochemical, bovine; settings: 20 μM bLPL, 25°C; for protection of LPL against ANGPTL4-induced cleavage by PCSK3 / protection of LPL against PCSK3 cleavage triggered by spontaneous unfolding: 0–240 min; for protection of LPL against PCSK3 cleavage triggered by spontaneous unfolding: 4 units PCSK3, without ANGPTL4, 25 μM GPIHBP1 variant
Method: To determine if charge-variants of GPIHBP1 confer distinct resistance to ANGPTL4-facilitated cleavage of LPL after Arg^324 by PCSK3 ([33]), we incubated purified bLPL (20 μM) with PCSK3 (4 units) for 0–240 min, either alone or in the presence of ANGPTL4 (2 μM) and/or GPIHBP1 (25 μM) at 25°C in 10 mM 2-(N-morpholino) ethane sulfonic acid (MES), 150 mM NaCl, 1 mM CaCl2, pH 7.0. We tested four different GPIHBP1 variants: GPIHBP1^1–131, GPIHBP1^Cluster1-neutral, GPIHBP1^Cluster2-neutral, and GPIHBP1^34–131 (LU domain only). PCSK3 cleavage was stopped by boiling in SDS-PAGE sample buffer (reduced and alkylated) and the degree of cleavage was assessed by SDS-PAGE using 12% Bis-Tris SDS-PAGE gels followed by densitometric scanning of the corresponding Coomassie blue–stained SDS-polyacrylamide gels.
Secretion of LPL by adipocytes is modulated in an autocrine manner by ANGPTL4. […] In the presence of endogenous ANGPTL4, a significant fraction of LPL was cleaved by PCSK3 in the trans-Golgi compartment. […] The presence of GPIHBP1 dramatically delayed PCSK3 cleavage of LPL ([33]). To assess the role of the acidic tail in GPIHBP1 on this delay, we incubated 20 μM bLPL with 4 units of PCSK3 either alone or in the presence of 2 μM ANGPTL4. We observed that the presence of sub-stoichiometric amounts of ANGPTL4 reduced the half-life of intact bLPL from 110 min to less than 5 min (Fig. 5A). […] Our results emphasized the essential role of GPIHBP1’s acidic tail in protecting LPL against ANGPTL4-induced cleavage by PCSK3.
Fig. 5 GPIHBP1 reduces ANGPTL4-facillitated PSCK3 cleavage of LPL. 20 μM bLPL was incubated with 4 units of PSCK3 for 0–240 min at 25°C and the extent of LPL cleavage after Arg^324 was assessed by densitometric scanning of Coomassie–blue stained polyacrylamide after SDS-PAGE of reduced and alkylated samples. A: PSCK3 cleavage of LPL is accelerated by the presence of 2 μM ANGPTL4—present at sub-stoichiometric amounts compared to bLPL (20 μM). 25 μM intact GPIHBP1, but not GPIHBP1^34–131 mitigates PSCK3 cleavage of LPL. B: Both GPIHBP1^Cluster1-neutral and GPIHBP1^Cluster2-neutral rescue LPL from cleavage by PSCK3 in the absence of ANGPTL4 and both are more efficient than GPIHBP1^34–131. C: in the presence of 2 μM ANGPTL4, 25 μM GPIHBP1^Cluster1-neutral protects LPL from PSCK3 cleavage more efficiently than the GPIHBP1^Cluster2-neutral, which indicates a more prominent role of acidic cluster 2 in protecting LPL from ANGPTL4-catalyzed unfolding and subsequent PSCK3 cleavage. Shown are the mean values (±SEM) for intact LPL relative to that present at time 0 min for 3–5 independent time-course experiments. Some curves appear in multiple panels to increase clarity.

[3] = test system: human LPL; assay: Native PAGE binding to human LPL; settings: 4 µM LPL with 18 µM GPIHBP1, 30 min on ice; Coomassie staining
Method: as §1, §2, §3, §4

[4] = 4 units PCSK3, 2 μM ANGPTL4, 25 μM GPIHBP1 variant

Molecule	binding to bLPL as judged by native PAGE [1]	protection of LPL against ANGPTL4-induced cleavage by PCSK3 [2, 4]	protection of LPL against PCSK3 cleavage triggered by spontaneous unfolding [2]	binding to hLPL as judged by native PAGE [3]	half-life of intact LPL ([2]; 4 units PCSK3, 2 μM ANGPTL4, 25 μM GPIHBP1 variant, pH 7.0, less than 5 min without GPIHBP1) [min]
B1	bound	marginal protection	prevented that cleavage completely	bound	–
B2	bound	significant protection	prevented that cleavage completely	bound	25
